Sequences and labels used below:
B1: yeast septin complex (Cdc3, Cdc10, Cdc11, Cdc12) (complex, yeast (S. cerevisiae))
chain 1: MSLKEEQVSIKQDPEQEERQHDQFNDVQIKQESQDHDGVDSQYTNGTQNDDSERFEAAESDVKVEPGLGMGITSSQSEKGQVLPDQPEIKFIRRQINGYVGFANLPKQWHRRSIKNGFSFNLLCVGPDGIGKTTLMKTLFNNDDIEANLVKDYEEELANDQEEEEGQGEGHENQSQEQRHKVKIKSYESVIEENGVKLNLNVIDTEGFGDFLNNDQKSWDPIIKEIDSRFDQYLDAENKINRHSINDKRIHACLYFIEPTGHYLKPLDLKFMQSVYEKCNLIPVIAKSDILTDEEILSFKKTIMNQLIQSNIELFKPPIYSNDDAENSHLSERLFSSLPYAVIGSNDIVENYSGNQVRGRSYPWGVIEVDNDNHSDFNLLKNLLIKQFMEELKERTSKILYENYRSSKLAKLGIKQDNSVFKEFDPISKQQEEKTLHEAKLAKLEIEMKTVFQQKVSEKEKKLQKSETELFARHKEMKEKLTKQLKALEDKKKQLELSINSASPNVNHSPVPTKKKGFLR
chain 2: MDPLSSVQPASYVGFDTITNQIEHRLLKKGFQFNIMVVGQSGLGKSTLINTLFASHLIDSATGDDISALPVTKTTEMKISTHTLVEDRVRLNINVIDTPGFGDFIDNSKAWEPIVKYIKEQHSQYLRKELTAQRERFITDTRVHAILYFLQPNGKELSRLDVEALKRLTEIANVIPVIGKSDTLTLDERTEFRELIQNEFEKYNFKIYPYDSEELTDEELELNRSVRSIIPFAVVGSENEIEINGETFRGRKTRWSAINVEDINQCDFVYLREFLIRTHLQDLIETTSYIHYEGFRARQLIALKENANSRSSAHMSSNAIQR
chain 3: MSGIIDASSALRKRKHLKRGITFTVMIVGQSGSGRSTFINTLCGQQVVDTSTTILLPTDTSTEIDLQLREETVELEDDEGVKIQLNIIDTPGFGDSLDNSPSFEIISDYIRHQYDEILLEESRVRRNPRFKDGRVHCCLYLINPTGHGLKEIDVEFIRQLGSLVNIIPVISKSDSLTRDELKLNKKLIMEDIDRWNLPIYNFPFDEDEISDEDYETNMYLRTLLPFAIIGSNEVYEMGGDVGTIRGRKYPWGILDVEDSSISDFVILRNALLISHLHDLKNYTHEILYERYRTEALSGESVAAESIRPNLTKLNGSSSSSTTTRRNTNPFKQSNNINNDVLNPASDMHGQSTGENNETYMTREEQIRLEEERLKAFEERVQQELLLKRQELLQREKELREIEARLEKEAKIKQEE
chain 4: MSAATATAAPVPPPVGISNLPNQRYKIVNEEGGTFTVMLCGESGLGKTTFINTLFQTVLKRADGQQHRQEPIRKTVEIDITRALLEEKHFELRVNVIDTPGFGDNVNNNKAWQPLVDFIDDQHDSYMRQEQQPYRTKKFDLRVHAVLYFIRPTGHGLKPIDIETMKRLSTRANLIPVIAKADTLTAQELQQFKSRIRQVIEAQEIRIFTPPLDADSKEDAKSGSNPDSAAVEHARQLIEAMPFAIVGSEKKFDNGQGTQVVARKYPWGLVEIENDSHCDFRKLRALLLRTYLLDLISTTQEMHYETYRRLRLEGHENTGEGNEDFTLPAIAPARKLSHNPRYKEEENALKKYFTDQVKAEEQRFRQWEQNIVNERIRLNGDLEEIQGKVKKLEEQVKSLQVKKSHLK
notes: Cdc3, yeast septin; Cdc10, yeast septin; Cdc11, yeast septin; Cdc12, yeast septin; Octamer at high salt (500 mM NaCl), filaments at low salt (100 mM NaCl); also called septin octamers; septin filaments; source: expressed and purified as described earlier (Farkasovsky et al., 2005); copies: 2 + 2 + 2 + 2

Data set [1] concerns the molecule itself. The data set is described as follows: negative-stain electron microscopy with single particle analysis; 0.1 µM septin octamers, with or without 0.5 µM Gic1; Cdc42-GppNHp or Cdc42-GDP at the concentration of Gic1 or 10 times higher (0.25, 1.5, 5 µM), 2 to 60 min; antibody labelling against Cdc3.
Data set [2] concerns the molecule itself. The data set is described as follows: SEC; gel filtration of purified Gic1(104-314) alone against protein standards; calculated 23.38 kDa, elutes at 49 kDa; monomer to dimer.
For data set [3], the target named is T1, septin-Cdc10(30-322) complex (Cdc3, Cdc10(30-322), Cdc11, Cdc12) (yeast (S. cerevisiae), UniProt P32457 1-520; P25342 30-322; P32458 1-415; P32468 1-407).
T1 construct: Cdc3, yeast septin; Cdc11, yeast septin; Cdc12, yeast septin; Seen by EM as tetramers or inside-out octamers; no filaments at low salt; also called polymerization-impaired septin complexes; non-polymerizing septin; copies: + + +
The data set can be described thus: negative-stain electron microscopy with single particle analysis; 0.3 µM septin hetero-oligomers, alone or with 1.5 µM Gic1, dialysed overnight at 4°C from high-salt buffer against low-salt buffer (100 mM NaCl, 20 mM Tris-HCl pH 7.5, 1 mM DTT); antibody labelling against Cdc11; adsorbed to a lipid monolayer. The settings on record: both partners purified.

The target of data set [4] is T2, Cdc10 (subunit of the purified yeast septin complex) (yeast (S. cerevisiae), UniProt P25342 1-322).
T2 construct: Cdc10, yeast septin; Never tested alone: it stood inside the complex m2; the subunit that is touched was assigned from antibody labelling, complexes lacking subunits and the known order of the subunits; source: subunit of the septin complex expressed and purified as described earlier (Farkasovsky et al., 2005)
T2 sequence (looked up): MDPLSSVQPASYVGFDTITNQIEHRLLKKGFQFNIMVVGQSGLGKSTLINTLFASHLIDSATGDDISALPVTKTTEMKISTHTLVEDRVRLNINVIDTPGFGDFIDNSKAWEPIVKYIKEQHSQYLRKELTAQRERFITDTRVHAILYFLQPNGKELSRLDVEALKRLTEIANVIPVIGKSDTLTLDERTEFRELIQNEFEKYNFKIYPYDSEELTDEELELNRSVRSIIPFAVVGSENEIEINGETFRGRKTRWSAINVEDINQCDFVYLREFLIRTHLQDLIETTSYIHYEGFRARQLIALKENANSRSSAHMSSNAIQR
The description is as above. As to conditions: both partners purified.

Data set [5] concerns the target T3, septin-Cdc11Δ complex (Cdc3, Cdc10, Cdc12) (yeast (S. cerevisiae), UniProt P32457 1-520; P25342 1-322; P32468 1-407).
T3 construct: Cdc3, yeast septin; Cdc10, yeast septin; Cdc12, yeast septin; Septin complex devoid of the Cdc11 subunit; copies: + +
T3 sequence (looked up) 1: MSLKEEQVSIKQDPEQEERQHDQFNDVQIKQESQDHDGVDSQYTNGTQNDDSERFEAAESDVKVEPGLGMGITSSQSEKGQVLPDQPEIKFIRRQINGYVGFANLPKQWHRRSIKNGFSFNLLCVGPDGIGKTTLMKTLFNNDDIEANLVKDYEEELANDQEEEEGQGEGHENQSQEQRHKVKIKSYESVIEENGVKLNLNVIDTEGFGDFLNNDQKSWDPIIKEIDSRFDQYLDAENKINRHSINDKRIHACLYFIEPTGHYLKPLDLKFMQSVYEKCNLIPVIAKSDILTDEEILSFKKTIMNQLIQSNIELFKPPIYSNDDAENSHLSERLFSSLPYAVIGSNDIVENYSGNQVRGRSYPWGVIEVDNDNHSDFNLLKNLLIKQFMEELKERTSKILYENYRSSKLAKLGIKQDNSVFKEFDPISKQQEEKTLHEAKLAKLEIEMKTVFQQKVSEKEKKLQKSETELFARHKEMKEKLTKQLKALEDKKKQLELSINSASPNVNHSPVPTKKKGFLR
T3 sequence (looked up) 2: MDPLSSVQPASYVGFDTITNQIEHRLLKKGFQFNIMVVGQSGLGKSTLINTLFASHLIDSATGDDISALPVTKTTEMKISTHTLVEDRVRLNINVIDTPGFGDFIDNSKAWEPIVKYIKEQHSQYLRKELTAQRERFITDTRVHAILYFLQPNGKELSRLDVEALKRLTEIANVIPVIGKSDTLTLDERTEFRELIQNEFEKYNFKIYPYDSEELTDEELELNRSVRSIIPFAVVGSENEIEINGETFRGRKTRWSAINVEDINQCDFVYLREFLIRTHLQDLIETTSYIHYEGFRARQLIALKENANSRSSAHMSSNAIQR
T3 sequence (looked up) 3: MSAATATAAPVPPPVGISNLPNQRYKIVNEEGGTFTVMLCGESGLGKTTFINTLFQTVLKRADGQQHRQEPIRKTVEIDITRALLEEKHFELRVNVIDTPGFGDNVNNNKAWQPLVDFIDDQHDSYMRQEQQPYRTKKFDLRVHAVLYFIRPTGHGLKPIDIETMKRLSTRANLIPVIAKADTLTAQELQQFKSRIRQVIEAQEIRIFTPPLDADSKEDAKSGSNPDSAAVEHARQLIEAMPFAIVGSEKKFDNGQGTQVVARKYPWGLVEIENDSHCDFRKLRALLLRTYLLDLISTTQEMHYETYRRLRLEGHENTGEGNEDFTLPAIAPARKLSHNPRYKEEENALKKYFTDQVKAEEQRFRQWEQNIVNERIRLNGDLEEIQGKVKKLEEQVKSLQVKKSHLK
The data set is described as above. As to conditions: both partners purified.

For data set [6], the target named is T4, Cdc10(30-322) (subunit of the septin-Cdc10(30-322) complex) (yeast (S. cerevisiae), UniProt P25342 30-322).
T4 construct: Never tested alone: it stood inside the complex m5
T4 sequence (looked up): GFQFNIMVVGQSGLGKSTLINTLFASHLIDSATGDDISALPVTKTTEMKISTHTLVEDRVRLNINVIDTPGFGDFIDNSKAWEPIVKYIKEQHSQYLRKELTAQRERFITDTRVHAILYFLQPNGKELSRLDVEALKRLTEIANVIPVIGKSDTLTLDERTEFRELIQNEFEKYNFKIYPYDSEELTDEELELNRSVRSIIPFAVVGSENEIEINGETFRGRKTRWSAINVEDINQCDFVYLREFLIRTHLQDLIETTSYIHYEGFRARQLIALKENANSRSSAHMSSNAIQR
Described as above. The settings on record: both partners purified.

Data set [7] addresses B1. The description is as above. As to conditions: both partners purified.

The stoichiometry N is a count of units in the complex or per binding partner.

For B1, in data set [1], the binding result is on record as “binds”.

B2: Gic1(104-314) (domain or fragment, yeast (S. cerevisiae), UniProt P38785 104-314, looked up)
chain: MFKKKDLLSRRHGSAKTAKQSSISTPFDFHHISHANGKREDNPLESHEEKHDVESLVKFTSLAPQPRPDSNVSSKYSNVVMNDSSRIVSSSTIATTMDSHHDGNETNNTPNGNKQLDSPTDLEMTLEDLRNYTFPSVLGDSVSEKTNPSSPSVSSFSGKFKPRELSALHTPELGNCFNVDQSLNSPGNRISVDDVLKFYYQCSETSTPRNT
notes: Gic1, yeast, residues 104-314 (N-terminal 103 amino acids deleted); gic1(310-942) in nucleotides; contains the CRIB domain and the C-terminus; Called simply Gic1 throughout the text; The methods say GST was cleaved with thrombin; Dimer by gel filtration; source: E. coli BL21 (DE3) Rosetta, purified (Ni-NTA, glutathione sepharose, Superdex S200)
B2: in data set [2], the “stoichiometry N” value was around 2. In addition, the binding result in data set [3], in data set [4], in data set [5], in data set [6] and in data set [7] was “binds” each time.

These data come from paper PMC3840788, “The role of Cdc42 and Gic1 in the regulation of septin filament formation and dissociation” (eLife, 2013).
